This note sets out measurements from article PMC10310818.

The assay deals with 2b-3×Flag (pGD-2b-3×Flag) (cucumber mosaic virus (CMV)) (UniProt Q66125).

The substance “VISP1-GFP (pGDGm-VISP1-GFP) (natural protein)” gave an accumulation of 2b-Flag co-expressed with VISP1-Myc, relative to empty vector (immunoblot, N. benthamiana leaves, 60 hpi) of 0.11 fold.
